To fix the notation:
B1: Drosophila melanogaster GTPase Rap1 G12V (amino acids 1-180), GMPPNP-loaded (enzyme, UniProt P08645 1-180, looked up)
chain: MREYKIVVLGSVGVGKSALTVQFVQCIFVEKYDPTIEDSYRKQVEVDGQQCMLEILDTAGTEQFTAMRDLYMKNGQGFVLVYSITAQSTFNDLQDLREQILRVKDTDDVPMVLVGNKCDLEEERVVGKELGKNLATQFNCAFMETSAKAKVNVNDIFYDLVRQINKKSPEKKQKKPKKSL
B2: Drosophila melanogaster Cno RA1 domain (amino acids 1-137) (domain or fragment, UniProt Q24279 1-137, looked up)
chain: MSHDKKMLDREAVRSVIQQWNANRLDLFALSEPDENLLFHGVMRFYFQDAGQKVATKCIRVASDATVTDVIDTLIEKFRPDMRMLSVPNYALYEVHANGEERRLNADEKPLLVQLNWHIDDREGRFLLKNIDQKTTP
B3: Drosophila melanogaster Cno RA2 domain (amino acids 222-350) (domain or fragment, UniProt Q24279 222-350, looked up)
chain: TRSISNPEAVMRRRRQQKLEKKLQQFRSRDGGPDTGGTLKIYGESLCQDVPYKTLLLSIRDCAQAVVREMLTKYGLEKADPLHYCLVQVNSDGTEYILDDDECPLSILMNHPTSRGSIMFHVRRRPADS

The target of assay [1] is B2. As to the kind of experiment: ITC. On the technique in general: In ITC the heat of successive injections is recorded.
The target of assay [2] is B3. Description: ITC.
Assay [3] addresses B2. Description: SEC-MALS.
Assay [4] concerns the target B1. As to the kind of experiment: ITC.

Several values for one entry are separate records, joined by “and”; a condition that tells them apart may be missing. Identical values can stand only once.

Here are results for three molecules from paper doi:10.1101/2024.07.29.605598 (bioRxiv, 2024).

Usually stoichiometry N stands for a count of units in the complex or per binding partner. A word on the Kd: it is the equilibrium constant for the complex coming apart.

Turning to B1, the dH in assay [1] is -4.38 kcal/mol and -4.79 kcal/mol; in assay [2] it was -3.07 kcal/mol and -2.18 kcal/mol and -2.72 kcal/mol. The “stoichiometry N” value was 0.717 in assay [1]; 0.755 and 0.73 and 0.63 in assay [2]; 1 in assay [3].
On to B2, for which, in assay [4], the Kd was 4.5 µM and 5.9 µM.
For the molecule B3, in assay [4], the Kd is 8.8 µM and 7.9 µM and 8.7 µM.
